# In PMC7112767:
# Biological target: IL-1β mutant with pBpa at position 63 (Homo sapiens)
# Assay: cross-linking
substance,measurement,value
monoclonal phage displaying the scFv of canakinumab,UV output (CFU),6400 CFU
same,UV/non-UV output ratio,3.8
